# Assay results: patent publication US8492099B2, “Method of measuring enzymatic activity of adsorbed allergenic enzyme” (Alk-Abello A/S, priority 2005, dated 2013)
# B1: Der p 1: major house dust mite allergen, family C1 cysteine protease, purified from D. pteronyssinus extract (protein, UniProt P08176 99-320, looked up)
# Peptidase 1: TNACSINGNAPAEIDLRQMRTVTPIRMQGGCGSCWAFSGVAATESAYLAYRNQSLDLAEQELVDCASQHGCHGDTIPRGIEYIQHNGVVQESYYRYVAREQSCRRPNAQRFGISNYCQIYPPNVNKIREALAQTHSAIAVIIGIKDLDAFRHYDGRTIIQRDNGYQPNYHAVNIVGYSNAQGVDYWIVRNSWDTNWGDNGYGYFAANIDLMMIEEYPYVVIL
# Tests used:
# papain = molecular target: T1, papain (Carica papaya, UniProt P00784); details: 12.5 nM E-64, papain 5 nM
# T1 sequence (P00784 134-345): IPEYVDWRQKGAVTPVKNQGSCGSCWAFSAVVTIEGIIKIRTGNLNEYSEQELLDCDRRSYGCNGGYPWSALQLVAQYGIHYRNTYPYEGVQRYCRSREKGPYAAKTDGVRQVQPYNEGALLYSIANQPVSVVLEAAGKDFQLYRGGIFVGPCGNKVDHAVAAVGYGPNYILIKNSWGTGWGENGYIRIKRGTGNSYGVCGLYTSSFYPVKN
# Protocol: Stock solutions of 1M DTT and 100 mM EDTA were made in the beginning of the experimental period, frozen at −20° C., and used through the entire project period. Each day a new buffer was made containing the reducing agent DTT and EDTA from the stock solutions. […] DTT is continuously oxidized by the oxygen in the air and therefore a new buffer must be made each day. […] The microtiter plate was opaque to avoid cross contamination of emitted fluorescence between wells. The substrate was diluted to the final concentration in the newly made buffer containing DTT and EDTA and transferred to the microtiter plate. The enzyme was diluted in the same buffer and incubated 10 min in the case of papain and 20 min in the case of Der p 1, for their activation. Mixing, transferring and incubation were carried out at room temperature. After incubation the enzyme solution was transferred to the microtiter plate and the measurements were initiated. The measurements were carried out for 10 min with a total of 36 measurements for each well and automatic mixture between each measurement.
# EDTA was added at 1 mM, and DTT at 5 mM final concentrations.
# [1] = Quenching of AMC fluorescence by aluminium hydroxide; type: physicochemical; details: 1 μM AMC, during the time of the assay
# From the text: This AMC concentration is equivalent to the enzymatic assay AMC concentration generated by papain and Der p 1.
# [2] = Der p 1 enzyme activity fluorescence assay (activity measurements and Michaelis-Menten kinetic), Der p 1/aluminium hydroxide adsorption experiment; type: biochemical
# Protocol: After measuring the enzymatic activity the maximal slope of the progress curve was estimated using the software SoftMax® PRO Life Sciences Edition, Molecular Devices, 2001. After estimating the initial velocity of the experiments they were transferred to Prism and analyzed.
# After adsorption 500 μL was taken out for further analysis and the rest of the mixture was centrifuged for 10 min at 4000 rpm. An elution step was performed for 1 h at 4° C. where the pellet of Mix2 was resuspended in phosphate buffer. […] Con1 was analyzed in the beginning of the experiment and Con2 was analyzed at the end of the 2 hours experiment.
# Different types of enzymatic assays were performed: (i) activity measurements using a fixed substrate concentration to evaluate enzyme activity, and (ii) Michaelis-Menten kinetic to estimate the kinetic parameters Vmax and KM.
# All activity assays were conducted with Tris buffer, pH 7.0, 5 mM DTT, 1 mM EDTA and Boc-QAR-AMC as substrate.
# [3] = Adsorption of Der p 1 to aluminium hydroxide: protein concentration by A280; type: physicochemical
# From the text: The aromatic amino acids tryptophan, tyrosine and phenylalanine absorb ultraviolet light. However only tryptophan and tyrosine absorb at 280 nm and tryptophan absorbs 5 times more light than tyrosine. This is due to the […] transition in the indole ring of tryptophan where phenylalanine and tyrosine contains a phenyl group. The absorbance of a protein is linearly correlated with the amount of tryptophan and tyrosine in the protein, the length of the light path and the concentration of protein. This relationship is named Lambert-Beer's law and is given by: A=ε·l·c where A is the absorbance, ε is the molar absorption coefficient for the protein (determined by the amount of tryptophan and tyrosine in the protein) l is the length of the light path and c is the protein concentration. Thus from an absorbance measurement the concentration of protein can be estimated if the molar absorptivity coefficient is known. • Apparatuses • Lambda 800 UV/VIS Spectrometer, PerkinElmer™ • 100-QS, quartz cuvette, path length 1 cm, Hellma® • Materials and Reagents • 50 mM Bis-Tris pH 6.5, Sigma • 50 mM Tris pH 7.0, Sigma • 50 mM phosphate buffer pH 7.0, Merck • 2% Helmanex solution, Hellma Experimental Procedure
# The spectrophotometer was turned on 30 min prior to use for a warm up period. The wavelength of the spectrophotometer was set to 280 nm and the instrument was zeroed to a blank sample containing the matrix of the true sample. The quartz cuvette was washed first with a 2% Helmanex solution and then 4 times with MQ water and afterwards dried with high pressure air. […] After cleaning the cuvette 20 μL of sample was transferred to the cuvette and the absorbance was measured.
# (§1) After adsorption 500 μL was taken out for further analysis and the rest of the mixture was centrifuged for 10 min at 4000 rpm. […] Con1 was analyzed in the beginning of the experiment and Con2 was analyzed at the end of the 2 hours experiment.
# The absorbance measurements were converted to protein concentration by the Lambert-Beer's law using a molar absorption coefficient for Der p 1 of […] as shown in table 8a. […]
# [4] = Adsorption of Der p 1 to aluminium hydroxide: protein concentration by rocket immune electrophoresis (RIE); type: physicochemical
# From the text: This method was used to quantify a given protein by measuring the propagation of protein-antibody complex after electrophoresis in an agarose gel containing antibodies directed against the protein under investigation.
# This method is based on the mobility of protein-antibody complex in an agarose gel during electrophoresis. The antibodies are incorporated into the agarose gel during polymerization and the sample protein is then applied to the wells. The proteins move according to their electrophoretic mobility encountering the antibodies in the gel and forming complexes. These complexes grow in size as the antigen encounters more and more antibodies thereby limiting the migration through the pores of the gel until no further migration occurs. The complexes are visualized by staining the gel. The area delimited by the complexes is proportional to the amount of protein applied to the well. The quantification is performed relative to an internal standard preparation applied in a dilution series on the same gel.
# A glass plate was placed on a leveled surface and cleaned with ethanol. 11 mL agarose was pipetted into a test tube in a 56° C. water bath, 15 μL antibody was added, and the solution was mixed gently by inversion. The agarose was poured onto the glass plate carefully avoiding formation of air bubbles. After gelation a series of wells were punched 1.5 cm from the lower edge of the plate. The plate was placed on the cooled surface of the electrophoresis apparatus. Connecting bridges of 5 layers of filter paper were established and the voltage across the gel adjusted to 2V/cm. 10 μL of sample was applied to the wells. […]
# as §1
# Another method applied to quantify protein content was RIE. The samples Con1, Con2, Sup, and Elu were evaluated together with three Der p 1 standards (125 ng, 250 ng, and 500 ng). […]
# [5] = system: IgE from sera of HDM allergic patients; test: IgE inhibition assay (ADVIA centaur); type: binding, human
# Protocol: This assay evaluates the capacity that an allergen has to bind IgE from sera of patients allergic to that allergen source.
# IgE inhibition experiments were performed on an ADVIA centaur instrument. Serial dilutions (performed with the TECAN (P-05-07F294)) of the inhibitor (Antigen in solution or antigen gel adjuvant vaccine) were mixed with a fixed amount of biotinylated antigen and further incubated with a solid phase absorbed IgE. The amount of biotinylated allergen bound to the solid phase was estimated as the light emitted after incubation with streptavidin labelled with acridinium ester. The raw data was processed in Excel and transferred to GraphPad Prism v. 4.0 for the final analysis (curve fitting, plotting and statistical comparisons). The data was fitted to a four parameter logistic function:
# After the adsorption the solution was centrifuged for 5 minutes at 13,000 rpm. […] A Der p extract sample was prepared for incubation with pooled sera IgE.
# [6] = Adsorbed: Der p 1 adsorbed to aluminium hydroxide (mix 2)
# [7] = Control: Der p 1 in the absence of aluminium hydroxide
# [8] = Eluted: Der p 1 eluted from aluminium hydroxide with phosphate buffer
molecule,measurement,setting,value
"CC(C)C[C@H](NC(=O)[C@H]1O[C@@H]1C(=O)O)C(=O)NCCCCN=C(N)N (relative stereo) [E-64, L-trans-epoxysuccinyl-L-leucylamido (4-guanidino) butane]",Inhibition of papain enzyme activity,papain,does not completely inhibit
Cc1cc(=O)oc2cc(N)ccc12 [AMC],Quenching of fluorescence by aluminium hydroxide,[1],no quenching occurred
B1,Vmax in Mix2 relative to Vmax in Mix1,[2],62%
same,Vmax in Sup relative to Vmax in Mix1,[2],30%
same,Km,[2]; [6],56 µM
same,Vmax,[2]; [6],0.15 ng/mL · s
same,"kcat (Vmax/protein concentration, A280)",[2]; [6],0.022 s⁻¹
same,"kcat (Vmax/protein concentration, RIE)",[2]; [6],0.019 s⁻¹
same,Vmax,[2]; [7],0.25 ng/mL · s
same,"kcat (Vmax/protein concentration, A280)",[2]; [7],0.024 s⁻¹
same,"kcat (Vmax/protein concentration, RIE)",[2]; [7],0.018 s⁻¹
same,Km,"[2]; Control: Der p 1 in the absence of aluminium hydroxide, Boc-QAR-AMC, pH 7.0",47 µM
same,Km,[2]; [8],51 µM
same,Vmax,[2]; [8],0.11 ng/mL · s
same,"kcat (Vmax/protein concentration, A280)",[2]; [8],0.025 s⁻¹
same,"kcat (Vmax/protein concentration, RIE)",[2]; [8],0.014 s⁻¹
same,Difference between Vmax of Con1 and Mix1,[2]; Newman Keuls multiple comparison test p>0.05,no significant difference
same,Activity in Mix2 found in Elu,[2]; Vmax,68%
same,Activity of Der p 1 adsorbed to aluminium hydroxide,[2]; activity measurements,66%
same,Adsorbed activity desorbed after elution from Mix2 with phosphate buffer,[2]; activity measurements,67%
same,Activity of non adsorbed Der p 1 in Sup relative to activity in Mix1,"[2]; activity measurements, 100 μM Boc-QAR-AMC",33%
same,Part of the Der p 1 molecules adsorbed to the aluminium hydroxide,[2]; conclusion,60-70%
same,Vmax of Con2 lower than Vmax in Con1,"[2]; end vs beginning of 2 hours experiment, absence of aluminium hydroxide, t-test p-value=0.0024",14%
same,Difference between KM means of the samples,[2]; one-way ANOVA p-value=0.62,no significant difference
same,"Difference in activity between Con1, Con2 and Mix1","[2]; one-way ANOVA p-value=0.76, 2 hours experiment",no significant difference
same,Adsorbed protein eluted from aluminium hydroxide using phosphate buffer,[3],56%
same,Protein content in Con1 found in Sup,[3],32%
same,Adsorption degree,"[3]; 100 μg/mL Der p 1, 1.14 mg/mL aluminium hydroxide, 1 h at 4° C.",approximately 70%
same,Adsorbed protein eluted from aluminium hydroxide using phosphate buffer,[4],98%
same,Adsorption degree,[4],approximately 56%
same,Protein content in Con1 found in Sup,[4],44%
same,"Inhibition of IgE binding, bottom levels of Con1 and Elu",[5]; Der p 1 without aluminium hydroxide (Con1) vs eluted from aluminium hydroxide (Elu),complete inhibition is possible
same,Hill slopes of Con1 and Elu,[5]; one sample t-test p=0.83,not significantly different
